Experiments:
Test in all cases: IP/MS, LZTR1 R810W-FLAG, U87
RPAP1 = target: T1, RPAP1 (human, UniProt Q9BWH6 1-1393, limits assumed)
T1 sequence (looked up): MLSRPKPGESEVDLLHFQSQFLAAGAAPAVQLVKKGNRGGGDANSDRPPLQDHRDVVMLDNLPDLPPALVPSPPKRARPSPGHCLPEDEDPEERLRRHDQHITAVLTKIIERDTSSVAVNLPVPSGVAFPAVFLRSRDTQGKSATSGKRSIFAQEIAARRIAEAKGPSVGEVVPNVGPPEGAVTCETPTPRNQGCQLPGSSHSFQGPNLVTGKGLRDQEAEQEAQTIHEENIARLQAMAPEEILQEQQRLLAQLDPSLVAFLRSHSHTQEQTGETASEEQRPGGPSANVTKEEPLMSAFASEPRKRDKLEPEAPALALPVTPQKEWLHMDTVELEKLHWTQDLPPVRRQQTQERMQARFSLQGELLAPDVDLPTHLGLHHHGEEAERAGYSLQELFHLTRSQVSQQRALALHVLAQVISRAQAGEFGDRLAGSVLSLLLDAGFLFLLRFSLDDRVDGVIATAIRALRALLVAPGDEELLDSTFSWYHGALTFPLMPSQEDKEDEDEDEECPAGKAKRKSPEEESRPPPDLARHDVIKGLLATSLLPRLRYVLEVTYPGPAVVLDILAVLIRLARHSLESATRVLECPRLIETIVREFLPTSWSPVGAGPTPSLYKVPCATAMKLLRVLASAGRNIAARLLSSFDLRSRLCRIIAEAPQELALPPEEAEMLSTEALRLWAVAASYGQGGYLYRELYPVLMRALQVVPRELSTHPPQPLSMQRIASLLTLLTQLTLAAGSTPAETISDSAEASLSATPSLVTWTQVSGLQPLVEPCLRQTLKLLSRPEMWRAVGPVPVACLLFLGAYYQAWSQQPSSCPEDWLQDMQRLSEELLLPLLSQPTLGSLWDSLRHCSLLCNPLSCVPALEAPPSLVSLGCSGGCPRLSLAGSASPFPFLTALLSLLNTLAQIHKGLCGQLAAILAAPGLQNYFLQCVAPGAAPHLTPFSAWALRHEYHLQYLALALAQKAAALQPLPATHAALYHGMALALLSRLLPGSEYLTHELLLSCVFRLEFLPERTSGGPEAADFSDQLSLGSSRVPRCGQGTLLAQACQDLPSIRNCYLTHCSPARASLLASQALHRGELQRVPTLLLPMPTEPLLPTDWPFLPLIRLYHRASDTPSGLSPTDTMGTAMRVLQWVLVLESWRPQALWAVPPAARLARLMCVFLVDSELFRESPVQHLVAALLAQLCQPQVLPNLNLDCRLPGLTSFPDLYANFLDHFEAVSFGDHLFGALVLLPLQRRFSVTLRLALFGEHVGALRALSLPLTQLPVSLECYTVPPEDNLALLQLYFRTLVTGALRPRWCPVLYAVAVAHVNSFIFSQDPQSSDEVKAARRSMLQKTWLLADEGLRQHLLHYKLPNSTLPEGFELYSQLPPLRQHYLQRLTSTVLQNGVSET
Procedure, shortened: (§1)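 Read-out: spectral counts from LC-MS/MS (Orbitrap Fusion) after MaxQuant identification. Variable modifications were Met oxidation, protein N-terminal acetylation and N/Q deamidation.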

CDC42BPB = CDC42BPB (human, UniProt Q9Y5S2 1-1711)
CDC42BPB, sequence (Q9Y5S2 whole entry): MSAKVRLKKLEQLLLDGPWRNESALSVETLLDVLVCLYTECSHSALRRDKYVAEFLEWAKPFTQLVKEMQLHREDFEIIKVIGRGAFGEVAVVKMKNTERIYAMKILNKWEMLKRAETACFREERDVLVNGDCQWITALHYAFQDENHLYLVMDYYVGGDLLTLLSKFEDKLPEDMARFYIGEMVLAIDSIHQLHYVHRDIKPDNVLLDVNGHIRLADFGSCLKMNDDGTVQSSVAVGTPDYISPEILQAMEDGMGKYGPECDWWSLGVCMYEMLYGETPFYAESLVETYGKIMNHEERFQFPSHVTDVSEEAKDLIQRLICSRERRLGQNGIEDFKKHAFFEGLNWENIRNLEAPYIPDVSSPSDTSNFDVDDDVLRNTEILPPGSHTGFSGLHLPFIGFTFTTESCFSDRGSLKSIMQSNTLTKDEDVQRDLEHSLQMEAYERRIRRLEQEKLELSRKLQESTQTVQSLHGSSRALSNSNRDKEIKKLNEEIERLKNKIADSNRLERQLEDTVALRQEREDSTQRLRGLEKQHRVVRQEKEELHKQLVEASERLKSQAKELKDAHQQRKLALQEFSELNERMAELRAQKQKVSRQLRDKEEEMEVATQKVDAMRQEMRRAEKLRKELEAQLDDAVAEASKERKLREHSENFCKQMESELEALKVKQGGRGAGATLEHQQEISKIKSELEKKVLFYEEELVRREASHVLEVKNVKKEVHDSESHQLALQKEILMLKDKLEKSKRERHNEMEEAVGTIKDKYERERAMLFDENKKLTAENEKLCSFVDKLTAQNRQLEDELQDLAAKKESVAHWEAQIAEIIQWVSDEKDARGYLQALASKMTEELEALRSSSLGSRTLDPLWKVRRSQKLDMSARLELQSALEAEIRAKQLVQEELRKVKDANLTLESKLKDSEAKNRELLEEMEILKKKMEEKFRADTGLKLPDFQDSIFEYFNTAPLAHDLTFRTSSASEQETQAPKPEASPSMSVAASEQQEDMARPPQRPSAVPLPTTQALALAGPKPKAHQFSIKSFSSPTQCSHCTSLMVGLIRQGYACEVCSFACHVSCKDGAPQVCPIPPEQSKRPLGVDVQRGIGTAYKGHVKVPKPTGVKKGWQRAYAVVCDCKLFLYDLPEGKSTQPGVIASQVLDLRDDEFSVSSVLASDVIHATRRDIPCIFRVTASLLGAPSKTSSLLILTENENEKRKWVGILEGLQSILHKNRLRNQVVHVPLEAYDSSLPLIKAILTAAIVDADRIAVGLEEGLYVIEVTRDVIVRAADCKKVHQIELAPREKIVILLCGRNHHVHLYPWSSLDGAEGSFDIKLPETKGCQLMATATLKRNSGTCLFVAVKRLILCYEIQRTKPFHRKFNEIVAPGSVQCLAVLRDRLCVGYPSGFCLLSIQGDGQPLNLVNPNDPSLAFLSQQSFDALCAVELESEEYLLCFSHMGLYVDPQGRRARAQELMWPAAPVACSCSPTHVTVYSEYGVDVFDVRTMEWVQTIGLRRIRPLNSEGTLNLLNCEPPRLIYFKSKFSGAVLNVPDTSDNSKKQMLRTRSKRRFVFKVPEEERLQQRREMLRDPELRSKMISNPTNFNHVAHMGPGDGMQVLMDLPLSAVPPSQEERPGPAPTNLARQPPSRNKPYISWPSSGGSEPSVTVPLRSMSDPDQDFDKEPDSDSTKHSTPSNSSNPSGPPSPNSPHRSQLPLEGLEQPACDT
Procedure, shortened: as §1

HELZ = HELZ (human, UniProt P42694 1-1942, limits assumed)
HELZ, sequence (P42694 whole entry): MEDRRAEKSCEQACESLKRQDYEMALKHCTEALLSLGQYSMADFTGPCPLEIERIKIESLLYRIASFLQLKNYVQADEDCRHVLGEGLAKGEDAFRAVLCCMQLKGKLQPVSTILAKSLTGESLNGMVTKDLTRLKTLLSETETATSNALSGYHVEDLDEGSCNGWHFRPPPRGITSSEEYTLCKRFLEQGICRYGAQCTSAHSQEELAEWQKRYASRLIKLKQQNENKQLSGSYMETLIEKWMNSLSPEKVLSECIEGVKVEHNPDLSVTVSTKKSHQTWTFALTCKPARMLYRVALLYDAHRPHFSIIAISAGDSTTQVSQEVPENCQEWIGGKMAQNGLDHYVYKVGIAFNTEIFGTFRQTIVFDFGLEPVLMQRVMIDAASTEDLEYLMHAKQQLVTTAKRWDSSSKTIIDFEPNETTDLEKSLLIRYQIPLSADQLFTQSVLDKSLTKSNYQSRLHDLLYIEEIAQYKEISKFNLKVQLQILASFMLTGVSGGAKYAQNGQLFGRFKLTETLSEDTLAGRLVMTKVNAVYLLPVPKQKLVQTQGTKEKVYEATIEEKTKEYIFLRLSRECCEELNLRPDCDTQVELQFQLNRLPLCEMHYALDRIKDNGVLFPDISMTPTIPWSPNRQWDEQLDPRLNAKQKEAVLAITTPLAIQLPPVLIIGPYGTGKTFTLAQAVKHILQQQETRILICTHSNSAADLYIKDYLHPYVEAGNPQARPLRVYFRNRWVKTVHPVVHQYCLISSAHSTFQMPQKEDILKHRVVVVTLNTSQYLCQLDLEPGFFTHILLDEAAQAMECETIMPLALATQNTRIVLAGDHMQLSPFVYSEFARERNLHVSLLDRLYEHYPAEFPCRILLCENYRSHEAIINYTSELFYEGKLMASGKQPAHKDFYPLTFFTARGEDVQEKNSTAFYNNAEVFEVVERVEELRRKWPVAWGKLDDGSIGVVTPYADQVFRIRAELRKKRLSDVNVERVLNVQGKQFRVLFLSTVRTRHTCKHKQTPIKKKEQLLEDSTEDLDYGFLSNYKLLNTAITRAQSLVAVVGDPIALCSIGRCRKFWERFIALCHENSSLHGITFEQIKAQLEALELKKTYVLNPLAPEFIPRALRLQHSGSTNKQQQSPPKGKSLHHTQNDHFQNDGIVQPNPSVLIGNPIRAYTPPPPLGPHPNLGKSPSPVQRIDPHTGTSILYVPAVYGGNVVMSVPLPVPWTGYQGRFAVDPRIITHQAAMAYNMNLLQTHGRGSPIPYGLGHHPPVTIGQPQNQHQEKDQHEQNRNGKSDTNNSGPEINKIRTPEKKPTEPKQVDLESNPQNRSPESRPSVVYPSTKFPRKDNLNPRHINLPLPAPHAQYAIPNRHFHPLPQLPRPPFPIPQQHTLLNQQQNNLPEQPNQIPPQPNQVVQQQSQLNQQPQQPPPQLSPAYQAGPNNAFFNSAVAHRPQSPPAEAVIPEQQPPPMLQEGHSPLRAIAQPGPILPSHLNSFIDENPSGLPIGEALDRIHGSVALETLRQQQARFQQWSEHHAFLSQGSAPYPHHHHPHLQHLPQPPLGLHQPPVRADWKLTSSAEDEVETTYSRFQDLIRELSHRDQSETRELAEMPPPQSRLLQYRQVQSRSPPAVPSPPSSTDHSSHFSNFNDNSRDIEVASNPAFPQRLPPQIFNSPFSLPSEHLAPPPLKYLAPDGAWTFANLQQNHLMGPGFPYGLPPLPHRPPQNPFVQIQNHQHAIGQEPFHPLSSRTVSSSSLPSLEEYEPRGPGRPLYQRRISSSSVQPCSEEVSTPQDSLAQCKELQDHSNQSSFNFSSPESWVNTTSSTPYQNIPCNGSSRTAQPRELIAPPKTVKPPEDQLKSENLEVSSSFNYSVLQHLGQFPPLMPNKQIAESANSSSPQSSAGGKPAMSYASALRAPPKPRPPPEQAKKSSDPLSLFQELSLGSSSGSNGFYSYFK
Procedure, shortened: as §1

Measured: binding result

B1: LZTR1 R810W-FLAG (other, human, UniProt Q8N653 1-840, looked up)
chain: MAGPGSTGGQIGAAALAGGARSKVAPSVDFDHSCSDSVEYLTLNFGPFETVHRWRRLPPCDEFVGARRSKHTVVAYKDAIYVFGGDNGKTMLNDLLRFDVKDCSWCRAFTTGTPPAPRYHHSAVVYGSSMFVFGGYTGDIYSNSNLKNKNDLFEYKFATGQWTEWKIEGRLPVARSAHGATVYSDKLWIFAGYDGNARLNDMWTIGLQDRELTCWEEVAQSGEIPPSCCNFPVAVCRDKMFVFSGQSGAKITNNLFQFEFKDKTWTRIPTEHLLRGSPPPPQRRYGHTMVAFDRHLYVFGGAADNTLPNELHCYDVDFQTWEVVQPSSDSEVGGAEVPERACASEEVPTLTYEERVGFKKSRDVFGLDFGTTSAKQPTQPASELPSGRLFHAAAVISDAMYIFGGTVDNNIRSGEMYRFQFSCYPKCTLHEDYGRLWESRQFCDVEFVLGEKEECVQGHVAIVTARSRWLRRKITQARERLAQKLEQEAAPVPREAPGVAAGGARPPLLHVAIREAEARPFEVLMQFLYTDKIKYPRKGHVEDVLLIMDVYKLALSFQLCRLEQLCRQYIEASVDLQNVLVVCESAARLQLSQLKEHCLNFVVKESHFNQVIMMKEFERLSSPLIVEIVRRKQQPPPRTPLDQPVDIGTSLIQDMKAYLEGAGAEFCDITLLLDGHPRPAHKAILAARSSYFEAMFRSFMPEDGQVNISIGEMVPSRQAFESMLRYIYYGEVNMPPEDSLYLFAAPYYYGFYNNRLQAYCKQNLEMNVTVQNVLQILEAADKTQALDMKRHCLHIIVHQFTKVSKLPTLWSLSQQLLLDIIDSLASHISDKQCAELGADI
notes: Stably expressed in U87 cells by lentivirus; also called LZTR1-FLAG-R810W; LZTR1 RW; not shown: FLAG tag
binds: all assays above

— patent US20250262210A1 (TRUSTEES OF COLUMBIA UNIVERSITY IN THE CITY OF NEW YORK, published 2025)
